Measurements published in paper PMC11549327 (Nature Communications, 2024).

Target: the molecule itself
Assay: cryo-EM structure

B1: E. coli ClpP-His6 (tetradecamer) (enzyme)
chain: not shown
stoichiometry N: 14
